# Reference: publication PMC3553987
# B1: sequence 7 (12 A repeat) (dsDNA)
# DNA 1: GCTACGAGCGCAAAAAAAAAAAAATGATAGCAAGCTCAAGTCAATCGGTCC
# DNA 2: GGACCGATTGACTTGAGCTTGCTATCATTTTTTTTTTTTTGCGCTCGTAGC
# modifications: 5' amino on one strand, coupled to hydrogel
# Target: c-Myc;Max isoform (human;human, UniProt P01106;P61244 16-454;2-160, |)
# Experiment: TIRF-PBM
# Chain of c-Myc;Max isoform (P01106 16-454, chain 1 of 2): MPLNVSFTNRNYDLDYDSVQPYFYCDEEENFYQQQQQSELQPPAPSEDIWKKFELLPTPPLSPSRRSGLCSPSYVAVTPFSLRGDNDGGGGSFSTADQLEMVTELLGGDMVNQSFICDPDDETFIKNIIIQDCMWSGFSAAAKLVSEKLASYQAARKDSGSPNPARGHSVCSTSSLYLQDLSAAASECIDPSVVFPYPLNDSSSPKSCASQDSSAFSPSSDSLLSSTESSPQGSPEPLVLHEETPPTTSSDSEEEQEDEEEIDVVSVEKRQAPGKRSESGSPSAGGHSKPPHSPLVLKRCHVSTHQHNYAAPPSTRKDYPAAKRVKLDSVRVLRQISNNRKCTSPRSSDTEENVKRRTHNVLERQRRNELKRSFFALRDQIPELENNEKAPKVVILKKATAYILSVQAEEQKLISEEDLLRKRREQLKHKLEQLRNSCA
# Chain of c-Myc;Max isoform (P61244 2-160, chain 2 of 2): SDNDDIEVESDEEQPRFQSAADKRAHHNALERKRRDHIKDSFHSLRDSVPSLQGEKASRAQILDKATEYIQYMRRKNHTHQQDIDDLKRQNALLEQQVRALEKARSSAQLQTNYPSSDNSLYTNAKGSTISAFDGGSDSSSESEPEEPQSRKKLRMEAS
binder,measurement,value
B1,binding result,binds
